The results in this text go back to patent US20060094649A1 (published 2006).

One test concerns the target HLA-B*4501 (human). Nature of the test: competition vs labelled reference peptide on HLA class I.
In test [1] the target is HLA-B*4403 (human). Nature of the test: competition with labeled probe peptide, purified HLA class I.
In test [2] the target is HLA-B*4403 (human). The test is described as follows: competitive inhibition of labeled probe peptide, purified HLA.
A further test concerns the target HLA-A*3101 (human). The test is described as follows: competition vs 125I probe, purified HLA.
The target in test [3] is HLA-B*4403 (human). Nature of the test: competition vs labelled reference peptide on HLA class I.
For the next test, the target named is HLA-A*3301 (human). Nature of the test: competition vs 125I probe, purified HLA.
The target in another test is HLA-B*1801 (human). Nature of the test: competition with labeled probe peptide, purified HLA class I.

Non-standard residues stand in square brackets, D forms with d. No end group written: not given here. Abu = CC[C@H](N)C(=O)O

B1: EEGACQPCPI (Her2/neu position 619, 10-mer) (peptide)
peptide: EEGACQPCPI
In the test with HLA-B*4501, B1 came in with a half-inhibitory concentration (IC50) of 401 nM.

B2: PEEGLEARGEA (MAGE2, position 12) (peptide)
peptide: PEEGLEARGEA
In the test with HLA-B*4403 [1], B2 returned a half-inhibitory concentration (IC50) of 950 nM.

B3: MAGE2 155 SEYLQLVFGIEVV (peptide)
peptide: SEYLQLVFGIEVV
As to B3, in the test with HLA-B*4403 [2], the IC50 was 7.6 nM. That is a single-digit nanomolar value.

B4: p53.240.B3K10 (peptide)
peptide: SS[Abu]MGGMNRK
B4: the 50% inhibitory concentration (IC50) with HLA-A*3101 is 720 nM.

B5: p53.240.V2B3K9 (peptide)
peptide: SV[Abu]MGGMNK
On to B5, for which, in the test with HLA-A*3101, the IC50 is 9000 nM.

B6: GEGLACHQLCA (Her2/neu position 506, 11-mer) (peptide)
peptide: GEGLACHQLCA
As to B6, in the test with HLA-B*4403 [3], the IC50 was 2.7 nM.

B7: p53.124.B1V2R9 (peptide)
peptide: [Abu]VYSPALNR
In turn, B7 showed a half-maximal inhibitory concentration (IC50) with HLA-A*3301 of 85 nM.

B8: LESEFQAAL (MAGE3, position printed 301) (peptide)
peptide: LESEFQAAL
Take B8: the IC50 in the test with HLA-B*1801 was found to be 5.4 nM.

For orientation: IC50 means the midpoint of a concentration-inhibition curve.
